According to US20050192211A1 (Merck KGaA, published 2005):

Target: T1, EPO receptor (UniProt P19235 25-508, limits assumed)
T1 sequence (looked up): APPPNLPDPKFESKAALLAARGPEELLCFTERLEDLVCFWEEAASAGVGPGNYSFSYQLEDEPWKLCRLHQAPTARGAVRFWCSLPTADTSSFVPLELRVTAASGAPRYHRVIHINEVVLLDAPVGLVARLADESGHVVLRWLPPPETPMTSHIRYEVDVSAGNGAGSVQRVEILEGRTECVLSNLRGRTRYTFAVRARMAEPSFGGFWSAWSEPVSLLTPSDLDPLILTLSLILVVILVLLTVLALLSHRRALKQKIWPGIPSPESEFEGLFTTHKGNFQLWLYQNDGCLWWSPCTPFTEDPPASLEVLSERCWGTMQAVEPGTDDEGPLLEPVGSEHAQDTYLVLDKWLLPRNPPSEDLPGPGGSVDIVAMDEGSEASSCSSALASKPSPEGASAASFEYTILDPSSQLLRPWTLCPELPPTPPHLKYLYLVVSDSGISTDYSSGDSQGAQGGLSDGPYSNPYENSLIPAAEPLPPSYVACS
Experiment: cell-based or functional assay

ED50, TF-1 cell proliferation (3H-thymidine incorporation); S.D. 0.96; N 10: 2.4 ng/mL
Substance: EPO (Aranesp®) (ligand)
